Assay results as given in patent EP2226633A1 (Charité - Universitätsmedizin Berlin, dated 2010).

Tests used:
[1] = target: T1, human LIFRα from HEK 293 cell extracts (human, UniProt P42702 45-1097); assay: GST pull-down, HEK cell extracts as prey, anti-LIFR Western blot
T1 construct: Endogenous protein from crude cell extract; also called hLIFRα
T1 sequence (looked up): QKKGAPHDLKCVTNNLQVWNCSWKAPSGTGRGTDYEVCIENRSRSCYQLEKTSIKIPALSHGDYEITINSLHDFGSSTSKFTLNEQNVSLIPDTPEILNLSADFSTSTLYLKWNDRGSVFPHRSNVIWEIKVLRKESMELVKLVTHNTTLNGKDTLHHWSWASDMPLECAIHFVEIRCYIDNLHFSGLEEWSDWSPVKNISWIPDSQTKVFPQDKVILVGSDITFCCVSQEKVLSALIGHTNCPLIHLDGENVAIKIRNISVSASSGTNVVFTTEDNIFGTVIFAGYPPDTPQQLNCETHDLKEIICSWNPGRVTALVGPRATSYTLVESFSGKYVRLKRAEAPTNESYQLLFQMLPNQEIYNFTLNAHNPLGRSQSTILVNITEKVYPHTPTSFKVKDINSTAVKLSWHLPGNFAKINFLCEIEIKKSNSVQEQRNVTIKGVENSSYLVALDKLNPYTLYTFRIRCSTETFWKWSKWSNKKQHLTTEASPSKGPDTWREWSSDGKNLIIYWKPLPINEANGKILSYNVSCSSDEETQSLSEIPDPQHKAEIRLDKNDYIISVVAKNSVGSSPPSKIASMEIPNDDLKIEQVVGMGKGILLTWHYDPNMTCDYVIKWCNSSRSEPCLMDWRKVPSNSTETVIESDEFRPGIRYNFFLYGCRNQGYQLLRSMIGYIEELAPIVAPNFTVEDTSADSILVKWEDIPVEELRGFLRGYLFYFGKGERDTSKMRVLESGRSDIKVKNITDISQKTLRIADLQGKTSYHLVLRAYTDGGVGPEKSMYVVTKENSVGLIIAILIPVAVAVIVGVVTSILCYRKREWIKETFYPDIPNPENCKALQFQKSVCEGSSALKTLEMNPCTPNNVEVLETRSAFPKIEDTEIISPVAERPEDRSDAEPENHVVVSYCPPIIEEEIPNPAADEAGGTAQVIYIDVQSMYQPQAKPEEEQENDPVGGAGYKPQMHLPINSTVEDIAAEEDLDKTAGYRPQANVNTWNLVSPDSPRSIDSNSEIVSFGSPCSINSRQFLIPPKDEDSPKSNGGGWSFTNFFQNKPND

[2] = target: T2, V5-His-tagged murine soluble LIFR, secreted by HEK 293 cells (mouse, UniProt P42703-2 44-719, limits assumed); assay: GST pull-down, HEK supernatant with msLIFR as prey, anti-V5 Western blot
T2 construct: Used as culture supernatant; also called msLIFR; murine soluble LIFRα; not shown: V5-His tag
T2 sequence (looked up): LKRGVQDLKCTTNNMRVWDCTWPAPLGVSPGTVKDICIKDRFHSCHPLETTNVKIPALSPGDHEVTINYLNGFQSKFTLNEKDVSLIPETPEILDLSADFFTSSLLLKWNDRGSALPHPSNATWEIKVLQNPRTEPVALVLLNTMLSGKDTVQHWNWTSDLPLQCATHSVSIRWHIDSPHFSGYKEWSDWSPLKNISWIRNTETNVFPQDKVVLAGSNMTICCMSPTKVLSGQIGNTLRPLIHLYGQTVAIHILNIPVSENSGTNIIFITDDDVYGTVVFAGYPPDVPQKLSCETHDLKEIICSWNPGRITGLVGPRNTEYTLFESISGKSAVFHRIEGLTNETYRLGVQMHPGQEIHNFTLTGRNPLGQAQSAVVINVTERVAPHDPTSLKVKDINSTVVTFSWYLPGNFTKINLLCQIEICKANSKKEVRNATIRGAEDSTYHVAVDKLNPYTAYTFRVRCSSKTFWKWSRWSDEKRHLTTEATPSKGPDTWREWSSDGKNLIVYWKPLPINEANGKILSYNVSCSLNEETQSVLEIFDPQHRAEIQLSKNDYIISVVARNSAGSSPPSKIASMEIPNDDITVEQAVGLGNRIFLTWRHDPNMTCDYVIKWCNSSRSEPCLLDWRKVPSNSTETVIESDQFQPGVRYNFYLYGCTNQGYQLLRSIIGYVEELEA

[3] = target: iodinated murine LIF (125I-mLIF) (mouse, UniProt P09056 24-203); assay: radioligand binding on transfected Ba/F3 cells
[4] = target: murine LIF, unlabelled (mouse, UniProt P09056 24-203); assay: displacement of 125I-mLIF from Ba/F3 cells transfected with LIFRα and gp130

B1: GST fusion protein of mature murine EPO, expressed in E. coli (ligand, mouse, UniProt P07321 27-192, looked up)
chain: APPRLICDSRVLERYILEAKEAENVTMGCAEGPRLSENITVPDTKVNFYAWKRMEVEEQAIEVWQGLSLLSEAILQAQALLANSSQPPETLQLHIDKAISGLRSLTSLLRVLGAQKELMSPPDTTPPAPLRTLTVDTFCKLFRVYANFLRGKLKLYTGEVCRRGDR
notes: mature; also called GST-matmEPO; matmE; not shown: N-terminal GST tag from pGEX-6P-1
- binding result [1]: no binding
- binding result [2]: no binding

B2: heterodimeric LIF receptor (murine gp130 and LIFRα) on transiently transfected Ba/F3 cells (receptor)
chain 1: QLLEPCGYIYPEFPVVQRGSNFTAICVLKEACLQHYYVNASYIVWKTNHAAVPREQVTVINRTTSSVTFTDVVLPSVQLTCNILSFGQIEQNVYGVTMLSGFPPDKPTNLTCIVNEGKNMLCQWDPGRETYLETNYTLKSEWATEKFPDCQSKHGTSCMVSYMPTYYVNIEVWVEAENALGKVSSESINFDPVDKVKPTPPYNLSVTNSEELSSILKLSWVSSGLGGLLDLKSDIQYRTKDASTWIQVPLEDTMSPRTSFTVQDLKPFTEYVFRIRSIKDSGKGYWSDWSEEASGTTYEDRPSRPPSFWYKTNPSHGQEYRSVRLIWKALPLSEANGKILDYEVILTQSKSVSQTYTVTGTELTVNLTNDRYVASLAARNKVGKSAAAVLTIPSPHVTAAYSVVNLKAFPKDNLLWVEWTPPPKPVSKYILEWCVLSENAPCVEDWQQEDATVNRTHLRGRLLESKCYQITVTPVFATGPGGSESLKAYLKQAAPARGPTVRTKKVGKNEAVLAWDQIPVDDQNGFIRNYSISYRTSVGKEMVVHVDSSHTEYTLSSLSSDTLYMVRMAAYTDEGGKDGPEFTFTTPKFAQGEIEAIVVPVCLAFLLTTLLGVLFCFNKRDLIKKHIWPNVPDPSKSHIAQWSPHTPPRHNFNSKDQMYSDGNFTDVSVVEIEANNKKPCPDDLKSVDLFKKEKVSTEGHSSGIGGSSCMSSSRPSISSNEENESAQSTASTVQYSTVVHSGYRHQVPSVQVFSRSESTQPLLDSEERPEDLQLVDSVDGGDEILPRQPYFKQNCSQPEACPEISHFERSNQVLSGNEEDFVRLKQQQVSDHISQPYGSEQRRLFQEGSTADALGTGADGQMERFESVGMETTIDEEIPKSYLPQTVRQGGYMPQ
chain 2: LKRGVQDLKCTTNNMRVWDCTWPAPLGVSPGTVKDICIKDRFHSCHPLETTNVKIPALSPGDHEVTINYLNGFQSKFTLNEKDVSLIPETPEILDLSADFFTSSLLLKWNDRGSALPHPSNATWEIKVLQNPRTEPVALVLLNTMLSGKDTVQHWNWTSDLPLQCATHSVSIRWHIDSPHFSGYKEWSDWSPLKNISWIRNTETNVFPQDKVVLAGSNMTICCMSPTKVLSGQIGNTLRPLIHLYGQTVAIHILNIPVSENSGTNIIFITDDDVYGTVVFAGYPPDVPQKLSCETHDLKEIICSWNPGRITGLVGPRNTEYTLFESISGKSAVFHRIEGLTNETYRLGVQMHPGQEIHNFTLTGRNPLGQAQSAVVINVTERVAPHDPTSLKVKDINSTVVTFSWYLPGNFTKINLLCQIEICKANSKKEVRNATIRGAEDSTYHVAVDKLNPYTAYTFRVRCSSKTFWKWSRWSDEKRHLTTEATPSKGPDTWREWSSDGKNLIVYWKPLPINEANGKILSYNVSCSLNEETQSVLEIFDPQHRAEIQLSKNDYIISVVARNSAGSSPPSKIASMEIPNDDITVEQAVGLGNRIFLTWRHDPNMTCDYVIKWCNSSRSEPCLLDWRKVPSNSTETVIESDQFQPGVRYNFYLYGCTNQGYQLLRSIIGYVEELAPIVAPNFTVEDTSADSILVKWDDIPVEELRGFLRGYLFYFQKGERDTPKTRSLEPHHSDIKLKNITDISQKTLRIADLQGKTSYHLVLRAYTHGGLGPEKSMFVVTKENSVGLIIAILIPVAVAVIVGVVTSILCYRKREWIKETFYPDIPNPENCKALQFQKSVCEGSNALKTLEMNPCTPNNVEVLESRSIVPKIEDTEIISPVAERPGERSEVDPENHVVVSYCPPIIEEEITNPAADEVGGASQVVYIDVQSMYQPQAKAEEEQDVDPVVVAGYKPQMRLPISPAVEDTAAEDEEGKTAGYRPQANVNTWNLVSPDSPRSTDSNNEVVSFGSPCSINSRQFLIPPKDEDSPKSNGGGWSFTNFFQNKPND
notes: whole, on cells; Also used here for the endogenous LIFR of murine M1 cells in the proliferation assay; also called classical LIFR; LIFRα/gp130
- binding result [3]: binds
- binding result [4]: binds
